Laboratory results published in PMC4176372, “The interplay of primer-template DNA phosphorylation status and single-stranded DNA binding proteins in directing clamp loaders to the appropriate polarity of DNA” (Nucleic Acids Research, 2014).
Blank lines part the entries; values can stand above or below the molecule they belong to.

Assays:
[1] = molecular target: replication protein A (RPA) (UniProt P22336)
[2] = molecular target: replication protein A (RPA) (UniProt P22336); remark: listed apart in the source
[3] = molecular target: T1, Saccharomyces cerevisiae clamp loader replication factor C (RFC) with a full-length Rfc1 subunit (S. cerevisiae, UniProt P38630 1-861; P40348 1-353; P38629 1-340; P40339 1-323; P38251 1-354); assay: stopped-flow fluorescence (PCNA-AF488_2 clamp closing); sequential mixing: 20 nM RFC, 20 nM PCNA-AF488_2 and 0.5 mM ATP incubated 4 s, then mixed with 40 nM 5′DNA pre-bound to 400 nM RPA, ATP and 200 nM unlabeled PCNA; 20°C; 30 mM HEPES pH 7.5, 150 mM NaCl, 10 mM MgCl2, 10% glycerol, 100 mM maltose; settings: both partners purified
T1 construct: Rfc1 subunit of S. cerevisiae RFC; Rfc2 subunit of S. cerevisiae RFC; Rfc3 subunit of S. cerevisiae RFC; Rfc4 subunit of S. cerevisiae RFC; Rfc5 subunit of S. cerevisiae RFC; Pentamer of Rfc1-5; source: E. coli BL21 (DE3) Rosetta, expressed from a single plasmid, purified (HighTrap SP, HighTrap heparin, MonoQ); copies: 1 + 1 + 1 + 1 + 1

[4] = molecular target: T1, Saccharomyces cerevisiae clamp loader …; assay: stopped-flow fluorescence (PCNA-MDCC release from RFC); PCNA labeled with MDCC on the surface to which RFC binds; fluorescence of the RFC·PCNA-MDCC complex is greater than that of unbound PCNA-MDCC; release followed after mixing with DNA substrates with and without bound SSB/RPA; 20°C; single exponential fit; settings: both partners purified

Sequence of replication protein A (RPA) (P22336 whole entry, chain 1 of 3): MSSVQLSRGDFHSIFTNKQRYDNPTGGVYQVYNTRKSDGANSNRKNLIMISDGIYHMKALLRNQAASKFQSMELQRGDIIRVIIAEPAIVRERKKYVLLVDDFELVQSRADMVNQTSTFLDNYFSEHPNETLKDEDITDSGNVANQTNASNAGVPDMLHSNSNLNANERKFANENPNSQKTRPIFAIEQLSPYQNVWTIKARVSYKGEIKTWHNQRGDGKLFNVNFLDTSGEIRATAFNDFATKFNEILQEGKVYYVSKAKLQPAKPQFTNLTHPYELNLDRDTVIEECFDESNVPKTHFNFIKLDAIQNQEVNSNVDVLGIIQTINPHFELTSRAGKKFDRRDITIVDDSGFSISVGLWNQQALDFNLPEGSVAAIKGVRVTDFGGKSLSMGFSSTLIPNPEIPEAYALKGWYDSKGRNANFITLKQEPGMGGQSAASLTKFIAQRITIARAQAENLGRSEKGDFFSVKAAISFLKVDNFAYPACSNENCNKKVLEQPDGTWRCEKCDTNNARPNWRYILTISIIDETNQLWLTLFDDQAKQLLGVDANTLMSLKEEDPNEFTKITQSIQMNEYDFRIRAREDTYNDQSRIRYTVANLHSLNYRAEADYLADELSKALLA
Sequence of replication protein A (RPA) (P26754 whole entry, chain 2 of 3, further chain): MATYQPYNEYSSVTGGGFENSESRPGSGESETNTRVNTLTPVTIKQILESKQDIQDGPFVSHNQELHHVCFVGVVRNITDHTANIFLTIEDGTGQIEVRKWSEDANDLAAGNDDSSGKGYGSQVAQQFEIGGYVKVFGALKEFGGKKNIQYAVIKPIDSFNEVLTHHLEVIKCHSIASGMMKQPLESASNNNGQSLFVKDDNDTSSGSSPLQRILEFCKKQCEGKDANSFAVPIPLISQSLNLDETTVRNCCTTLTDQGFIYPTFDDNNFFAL
Sequence of replication protein A (RPA) (P26755 whole entry, chain 3 of 3, further chain): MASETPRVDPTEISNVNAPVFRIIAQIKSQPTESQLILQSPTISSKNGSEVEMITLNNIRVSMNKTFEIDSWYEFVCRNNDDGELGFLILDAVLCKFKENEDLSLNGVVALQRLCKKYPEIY

k obs1 of PCNA-AF488 2 closing by RFC on 3′DNA·RPA [1]: 4.4 s⁻¹
kobs of PCNA-AF488 2 closing by RFC on phosphorylated 5′DNA·RPA [1]: 0.09 s⁻¹
k obs1 of PCNA closing by RFC on 3′DNA with the non-cognate SSB substituted for RPA [2]: 4.6 s⁻¹
rate of PCNA closing by RFC on 5′DNA with the non-cognate SSB substituted for RPA [2]: 0.45 s⁻¹
Molecule: Saccharomyces cerevisiae clamp loader replication factor C (RFC) with a full-length Rfc1 subunit (from UniProt P38630 1-861; P40348 1-353; P38629 1-340; P40339 1-323; P38251 1-354) (complex)

binding result [3]: binds
B1: PCNA-AF488_(2) (S. cerevisiae PCNA, C22/62/81S, I111C, I181C, labeled with AF488) (natural protein, UniProt P15873 1-258, looked up)
chain: MLEAKFEEASLFKRIIDGFKDSVQLVNFQCKEDGIIAQAVDDSRVLLVSLEIGVEAFQEYRSDHPVTLGMDLTSLSKILRSGNNTDTLTLIADNTPDSIILLFEDTKKDRCAEYSLKLMDIDADFLKIEELQYDSTLSLPSSEFSKIVRDLSQLSDSINIMITKETIKFVADGDIGSGSVCIKPFVDMEHPETSIKLEMDQPVDLTFGAKYLLDIIKGSSLSDRVGIRLSSEAPALFQFDLKSGFLQFFLAPKFNDEE
modifications: AF488 on the cysteines introduced at positions 111 and 181
notes: proliferating cell nuclear antigen (PCNA), the S. cerevisiae sliding clamp; also called fluorescent PCNA; source: purified as described previously

binding result [4]: binds
B2: PCNA-MDCC (S. cerevisiae PCNA, C22/62/81S, S43C, labeled with MDCC) (natural protein, UniProt P15873 1-258, looked up)
chain: MLEAKFEEASLFKRIIDGFKDSVQLVNFQCKEDGIIAQAVDDCRVLLVSLEIGVEAFQEYRSDHPVTLGMDLTSLSKILRSGNNTDTLTLIADNTPDSIILLFEDTKKDRIAEYSLKLMDIDADFLKIEELQYDSTLSLPSSEFSKIVRDLSQLSDSINIMITKETIKFVADGDIGSGSVIIKPFVDMEHPETSIKLEMDQPVDLTFGAKYLLDIIKGSSLSDRVGIRLSSEAPALFQFDLKSGFLQFFLAPKFNDEE
modifications: MDCC on the cysteine introduced at position 43
notes: proliferating cell nuclear antigen (PCNA), the S. cerevisiae sliding clamp; source: purified as described previously
